Laboratory results taken from patent US20240124885A1 (MENDEL BIOTECHNOLOGY, published 2024).

Experiments:
[1] = target: Flag::GmBBX62 (Glycine max); test: Luminex co-IP from soybean protoplast extract, anti-GFP capture, anti-FLAG detection
[2] = target: Flag::GmBBX62 (Glycine max); test: reciprocal Luminex co-IP from soybean protoplast extract, anti-FLAG capture, anti-GFP detection
[3] = target: T1, AtBBX32::GFP (Arabidopsis thaliana, UniProt Q9LJB7 1-225); test: Luminex co-IP from soybean cotyledon protoplast extract, both directions
T1 construct: Fusion protein transiently expressed in soybean cotyledon protoplasts; also called AtBBX32 fused to GFP; not shown: GFP fusion partner
T1 sequence: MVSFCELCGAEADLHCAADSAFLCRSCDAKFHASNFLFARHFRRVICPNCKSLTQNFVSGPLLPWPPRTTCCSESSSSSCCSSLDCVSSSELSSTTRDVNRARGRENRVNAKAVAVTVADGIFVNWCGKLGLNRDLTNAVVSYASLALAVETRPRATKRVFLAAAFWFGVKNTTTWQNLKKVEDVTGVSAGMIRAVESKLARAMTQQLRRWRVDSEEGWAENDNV
Experimental: (§1) Capture antibodies for GFP (MBL International, D153-3),Myc (Bethyl Laboratories cat #A190-104A)and FLAG (Bethyl Laboratories, A190-101A) were covalently coupled to carboxylated fluorescent microspheres (Luminex) according to the manufacturer's protocol Luminex two-step Carbodimide coupling protocol was modified as follows: 3.5×10⁶ beads were conjugated to […] of antibody and resuspended in coupling buffer containing 100 mM MES pH 6. Biotinylated antibodies for GFP (Abcam, ab6658), Myc (Bethyl Laboratories cat #A190-104B)and FLAG (Bethyl laboratories, A190-101B) were used for detection of interacting proteins in the miniaturized sandwich immunoassay. NeutrAvidin R-phycoerythrin was used as the reporter assay reagent (Invitrogen, A2660).
To assess the potential interaction between AtBBX32 and GmBBX39, two experiments were conducted consisting of a total of three repetitions (exp. 1, n=1; exp. 2, n=2). BBX32::GFP was co-expressed with FLAG::GmBBX39 in soybean cotyledon protoplasts. Expression analyses on one replicate of each treatment using either Luminex (BBX32::GFP) or Western blot (FLAG::BBX39) detection confirmed that each protein was expressed at detectable levels (data not shown). When co-expressed in protoplasts, BBX32::GFP and FLAG::BBX39 co-precipitated with either anti-GFP or anti-FLAG beads (FIG. 17).

[4] = target: T1, AtBBX32::GFP; test: Luminex co-IP, anti-GFP and anti-Myc capture
Experimental: Luminex co-IP assays were performed on extracts from soybean cotyledon protoplasts co-expressing AtBBX32 fused to GFP and GmBBX39 fused to the Myc epitope. A: IP with anti-GFP, detection with anti-Myc. B: IP with anti-Myc, detection with anti-GFP. MFI stands for Median Fluorescence Intensity. * denotes p<0.001.
as §1

B1: AtBBX32::GFP (protein, not shown: large carriers)
chain: T1 sequence
Q: How did the fold increase of median fluorescence intensity (MFI) over controls [1] turn out when B1 was run?
A: 6 fold

Q: What about the fold increase of fluorescence intensity over controls [2] of the same binder?
A: 5 fold

B2: FLAG::GmBBX39 (other)
chain: MKIQCDVCNKHEASVFCTADEAALCDGCDHRVHHANKLASKHQRFSLLRPSPKQHPLCDICQERRAFTFCQQDRAILCKECDVSIHSANEHTLKHDRFLLTGVKLSASAMLRSSETTSDSNSNPSLLNFSHQTTLLPPSSTTTTTTSNNNNNKVAVEGTGSTSASSISEYLIETLPGWQVEDFLDSYSVPFGFCKNDEVLPRFDGEMEGHLSSFSTENMGIWVPQAPPTLMCSSQMDRVIVHGETNIKGSSRSRLKDDNFTVPQISPPSNSKRARFLW
notes: Co-expressed with BBX32::GFP in soybean cotyledon protoplasts; also called FLAG::BBX39; not shown: FLAG tag
Q: Does B2 bind [3]?
A: binds

B3: GmBBX39 fused to the Myc epitope (other, not shown: small tags and cut ends)
chain: B2 chain
Q: Does B3 bind [4]?
A: binds
